{"source": "patent US20240025977A1", "about": "(UNIVERSITY HEALTH NETWORK, published 2024)", "key": {"[1]": {"target": "FITC-labeled AL09 under amyloid-forming conditions", "assay": "cell-based or functional assay"}, "[2]": {"target": "T1, IAPP (islet amyloid polypeptide) amyloid in pancreatic tissue (human, UniProt P10997 34-70)", "T1 construct": "Tissue section; also called IAPP pancreatic tissue", "T1 chain (looked up)": "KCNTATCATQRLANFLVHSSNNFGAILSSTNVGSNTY", "assay": "immunohistochemistry, pancreatic tissue"}, "[3]": {"target": "ATTR amyloid in human cardiac tissue (human, UniProt P02766 21-147)", "assay": "immunohistochemistry, ATTR cardiac tissue"}, "[4]": {"target": "T2, misfolded/unfolded AL12 kappa light chain", "T2 construct": "also called misfolded AL12", "assay": "bio-layer interferometry, Octet fit, table inset", "procedure": "(§1) FIGS. 13A-13D are bio-layer interferometry sensorgrams of binding interactions between LX-96 and misfolded (FIG. 13A, 13C) or native kappa light chain variants (FIG. 13B, 13D). Binding of LX-96 with its targets at a range of target concentrations was measured by changes in wavelength (nm) over 2000 seconds (300s association, 1700s dissociation). Association and dissociation curves were fit using Octet Systems Software to determine KD, KD Error, X2 and R2 values (table insets; FIGS. 13A-13D).\n(§2) We quantified the monovalent binding affinity of LX-96 using bio-layer interferometry (BLI). LX-96 was loaded onto Anti-Mouse IgG Fc Capture (AMC) biosensors and dipped into a solution of varying concentrations of misfolded AL09 (0-200 nM) or native AL09 (0-3000 nM). From the sensorgram, we observed rapid association of misfolded AL09 with LX-96, followed by a slow dissociation step (FIG. 13A). […] This confirms that LX-96 is capable of binding specifically to the misfolded form of different kappa light chain variants at similar, single-digit nanomolar affinities."}, "[5]": {"target": "T2, misfolded/unfolded AL12 kappa light …", "assay": "BLI (Octet), LX-96 on Anti-Mouse IgG Fc Capture biosensors, misfolded AL12 in solution", "procedure": "as §1, §2"}, "[6]": {"target": "T3, misfolded/unfolded AL09 kappa light chain", "T3 construct": "Same polypeptide as native AL09, in a chemically unfolded, reduced and alkylated state; also called misfolded AL09; mis/unfolded AL09", "assay": "BLI (Octet), LX-96 on Anti-Mouse IgG Fc Capture biosensors, misfolded AL09 0-200 nM in solution", "procedure": "as §1, §2"}}, "data": [{"binder": "LX-96 anti-kappa monoclonal antibody (antibody, V domains shown, Fluorescently labeled in the in vivo localisation assay; also called anti-κ monoclonal antibody) VH: QVQLQQPGAELARPGASVKLSCKASGYTFTSFWIQWIKQRPGQGLEWIGSIYPGDGDTRYIQKFRGKATLTADESSSTAYMQLSSLASEDSAIYYCAIVTTAPDYWGQGTTLTVSS VL: not shown", "values": [{"measurement": "inhibition of AL09 aggregation (FITC fluorescence of the soluble fraction at endpoint), IC50", "setting": "[1]", "value": "< 1000", "unit": "nM"}, {"measurement": "binding result", "setting": "[2]", "value": "no binding"}, {"measurement": "binding result", "setting": "[3]", "value": "no binding"}, {"measurement": "Kd", "setting": "[4]", "value": 7.47, "unit": "nM"}, {"measurement": "Kd", "setting": "[5]", "value": 7.5, "unit": "nM"}, {"measurement": "Kd", "setting": "[6]", "value": 1.12, "unit": "nM"}]}]}
